Test results taken from publication PMC8844856, “Structural basis of cyclic oligoadenylate binding to the transcription factor Csa3 outlines cross talk between type III and type I CRISPR systems” (The Journal of Biological Chemistry, 2022).
Entries after “also recorded” stand apart in the source; their conditions may differ.

Assays:
[1] = molecular target: T1, His6-Csa3Sso (WT) (Saccharolobus solfataricus, UniProt Q97Y88); experiment: Microscale thermophoresis (MST) binding of cOA ligands to wildtype Csa3Sso; details: MST
T1 construct: made in house; host or cells: E. coli BL21(DE3)-pLysS
T1 sequence (Q97Y88 1-237): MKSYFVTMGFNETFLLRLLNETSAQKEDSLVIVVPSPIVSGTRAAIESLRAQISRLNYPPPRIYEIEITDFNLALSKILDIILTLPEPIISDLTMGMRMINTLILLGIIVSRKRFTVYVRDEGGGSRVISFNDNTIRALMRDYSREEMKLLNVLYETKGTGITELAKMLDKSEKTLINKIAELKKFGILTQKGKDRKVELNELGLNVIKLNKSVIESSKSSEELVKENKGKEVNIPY
Procedure: The ligand-binding specificity of Csa3Sso (WT) and the role of Csa3Sso residues in ligand binding were determined by microscale Thermophoresis (MST). Wildtype or mutant His6-Csa3Sso (200 nM) was fluorescently labeled in 2× binding buffer (10 mM Na/K phosphate, pH 5.8, 10 mM MgCl2, 25 mM NaCl, and 0.05% Tween 20) using 100 nM RED-Tris NTA His-Tag labeling dye (Nanotemper Technologies, Inc) and incubated in the dark at room temperature for 30 min. Two millimolar stocks of synthetic ligands including cA3, cA4, and cA6 (Biolog Life Science Institute) or linear ribonucleotide 5′-rCrArArArA-3′ (Bio-Synthesis Inc) were serially diluted in a 1:1 ratio with nuclease-free water. The labeled proteins were then mixed with ligands in a 1:1 ratio. Only cA4 was used in the MST experiments with the Csa3Sso mutants (2 mM stocks of cA4 were used for F10A, F14A, G96A, and R98A mutants, and 20 μM stocks were used for E122A and E122Q mutants). The mixtures of proteins and ligands were incubated in the dark at room temperature for 30 min. The precipitated material was removed by centrifugation at 6000 rpm for 5 min. The supernatants were then loaded into Monolith NT.115 Series Premium capillaries in triplicate, and the thermophoresis was detected with 40% excitation power and 40% IR-laser power for an on-time of 20 s at 25 °C.
(§1) The binding affinities of oligonucleotides and PCas4a to Csa3Sso (WT and mutants) were analyzed according to the law of mass action in a standard fitting mode of MO.Affinity analysis software (version 2.3).

[2] = molecular target: T1, His6-Csa3Sso (WT); experiment: MST binding of PCas4a promoter DNA to Csa3Sso with or without cOAs; details: 50-fold excess of cOA (25 μM)
Procedure: The MST experiment and data analysis for ligand-induced changes in Csa3Sso binding affinity with PCas4a was performed as mentioned above except for the following: 1 μM of His6-Csa3Sso (WT) was fluorescently labeled in 2× binding buffer with 40 nM RED-Tris NTA His-Tag labeling dye in the absence or presence of cA4 or cA6. The labeling mixtures were incubated in the dark at room temperature for 30 min. A 50 μM stock of PCas4a was serially diluted in 1:1 ratios with nuclease-free water. The labeled proteins ± ligands were then mixed with diluted PCas4a in a 1:1 ratio and incubated in the dark at room temperature for 30 min. The supernatants obtained after removal of precipitated material were then loaded into Monolith NT.115 Series Premium capillaries in triplicate, and the thermophoresis was detected with 100% excitation power and 60% IR-laser power for an on-time of 20 s at 25 °C.
as §1

[3] = molecular target: the molecule itself; experiment: SEC; Superdex 200 16/70 gel filtration in buffer F (20 mM Tris-HCl pH 8.0, 50 mM NaCl), against globular standards
[4] = molecular target: the molecule itself; experiment: AUC; sedimentation velocity, 20 °C, 40,000 rpm, 10 mM Na/KPO4 pH 5.8, 10 mM NaCl, 25 mM MgCl2; without cA4
[5] = molecular target: T2, Csa3Sso WT (Saccharolobus solfataricus P2, UniProt Q97Y88 1-237); experiment: MST; apparent Kd; MST buffer not given in the material; Cy5 EMSA: 50 nM probe, 0.5-25 uM protein, 5% acrylamide TBE, 4 C; agarose EMSA: 2% TBE, room temperature; crystals: 20 mM; details: protein: recombinant; tags: N-terminal His6; chain copies: 2; cyclic; no ends
T2 sequence: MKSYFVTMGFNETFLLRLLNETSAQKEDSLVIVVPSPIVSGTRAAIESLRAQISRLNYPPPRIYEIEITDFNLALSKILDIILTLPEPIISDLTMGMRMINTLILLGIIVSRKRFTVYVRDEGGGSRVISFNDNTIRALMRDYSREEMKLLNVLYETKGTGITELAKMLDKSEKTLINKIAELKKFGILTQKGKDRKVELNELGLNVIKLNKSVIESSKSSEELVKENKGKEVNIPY

[6] = molecular target: T2, Csa3Sso WT; experiment: EMSA; no cA4; faint shifted band; MST buffer not given in the material; Cy5 EMSA: 50 nM probe, 0.5-25 uM protein, 5% acrylamide TBE, 4 C; agarose EMSA: 2% TBE, room temperature; crystals: 20 mM; details: protein: recombinant; tags: N-terminal His6; chain copies: 2; label: 5' Cy5 on top strand; blunt
[7] = molecular target: T2, Csa3Sso WT; experiment: MST; no cOA; precipitate removed; MST buffer not given in the material; Cy5 EMSA: 50 nM probe, 0.5-25 uM protein, 5% acrylamide TBE, 4 C; agarose EMSA: 2% TBE, room temperature; crystals: 20 mM; details: protein: recombinant; tags: N-terminal His6; chain copies: 2; blunt
[8] = molecular target: T2, Csa3Sso WT; experiment: MST; only nonspecific signal at >=250 uM; MST buffer not given in the material; Cy5 EMSA: 50 nM probe, 0.5-25 uM protein, 5% acrylamide TBE, 4 C; agarose EMSA: 2% TBE, room temperature; crystals: 20 mM; details: protein: recombinant; tags: N-terminal His6; chain copies: 2; cyclic; no ends

## Nc1ncnc2c1ncn2[C@@H]1O[C@@H]2COP(=O)(O)O[C@H]3[C@@H](O)[C@H](n4cnc5c(N)ncnc54)O[C@@H]3COP(=O)(O)O[C@H]3[C@@H](O)[C@H](n4cnc5c(N)ncnc54)O[C@@H]3COP(=O)(O)O[C@H]2[C@H]1O [cA3]
[1]
  specific binding to His6-Csa3Sso: lack of Csa3Sso binding

## Nc1ncnc2c1ncn2[C@@H]1O[C@@H]2COP(=O)(O)O[C@H]3[C@@H](O)[C@H](n4cnc5c(N)ncnc54)O[C@@H]3COP(=O)(O)O[C@H]3[C@@H](O)[C@H](n4cnc5c(N)ncnc54)O[C@@H]3COP(=O)(O)O[C@H]3[C@@H](O)[C@H](n4cnc5c(N)ncnc54)O[C@@H]3COP(=O)(O)O[C@H]3[C@@H](O)[C@H](n4cnc5c(N)ncnc54)O[C@@H]3COP(=O)(O)O[C@H]3[C@@H](O)[C@H](n4cnc5c(N)ncnc54)O[C@@H]3COP(=O)(O)O[C@H]2[C@H]1O [cA6]
[2]
  effect of excess cOA on PCas4a binding affinity of Csa3Sso: no significant effect; also recorded: did not significantly change
[1]
  specific binding to His6-Csa3Sso: only cA4 exhibited a specific low micromolar binding

B1: Saccharolobus solfataricus Csa3 (Csa3Sso), N-terminally His6-tagged, wildtype (natural protein, UniProt Q97Y88 1-237, looked up)
chain: MKSYFVTMGFNETFLLRLLNETSAQKEDSLVIVVPSPIVSGTRAAIESLRAQISRLNYPPPRIYEIEITDFNLALSKILDIILTLPEPIISDLTMGMRMINTLILLGIIVSRKRFTVYVRDEGGGSRVISFNDNTIRALMRDYSREEMKLLNVLYETKGTGITELAKMLDKSEKTLINKIAELKKFGILTQKGKDRKVELNELGLNVIKLNKSVIESSKSSEELVKENKGKEVNIPY
notes: Csa3 (CRISPR Apern 3, a Csa3a homolog) of Saccharolobus solfataricus strain P2, Sso1445, UniProtKB Q97Y88; full-length; the His6-tagged construct has 248 a.a; (MW theor 28.1 kDa); Synthetic gene in pBB75 (or pET21b); also called His6-Csa3Sso; Csa3Sso (WT); source: E. coli BL21(DE3)-pLysS, purified (lysate heated at 65 °C, HisTrap, Mono-Q flow-through, Cibacron Blue, Superdex 200); not shown: …
[3]
  stoichiometry N: 2

B2: Csa3Sso-R98A mutant, N-terminally His6-tagged (natural protein, Saccharolobus solfataricus, UniProt Q97Y88 1-237, looked up)
chain: MKSYFVTMGFNETFLLRLLNETSAQKEDSLVIVVPSPIVSGTRAAIESLRAQISRLNYPPPRIYEIEITDFNLALSKILDIILTLPEPIISDLTMGMAMINTLILLGIIVSRKRFTVYVRDEGGGSRVISFNDNTIRALMRDYSREEMKLLNVLYETKGTGITELAKMLDKSEKTLINKIAELKKFGILTQKGKDRKVELNELGLNVIKLNKSVIESSKSSEELVKENKGKEVNIPY
notes: Csa3 of Saccharolobus solfataricus strain P2, Sso1445, UniProtKB Q97Y88; full-length, with R98A; Synthetic gene in pBB75; source: E. coli BL21(DE3)-pLysS, purified (lysate heated at 65 °C, HisTrap, Mono-Q flow-through, Cibacron Blue, Superdex 200); not shown: His6, N-terminal, kept
[4]
  stoichiometry N: 2

## AAAA (ssRNA, cyclic, 3'-5' linked tetra-adenylate (CHEBI:142457)) [cA4]
[5]
  Kd: 5.8 ± 0.03 µM

B3: Cy5-PCas4a (dsDNA)
DNA 1: AAAGAATTCCCGAATTTACTAGGGAT
DNA 2: ATCCCTAGTAAATTCGGGAATTCTTT
modifications: 5' amino-modified top strand
[6]
  binding result: binds

B4: PCas4a (dsDNA)
DNA 1: AAAGAATTCCCGAATTTACTAGGGAT
DNA 2: ATCCCTAGTAAATTCGGGAATTCTTT
[7]
  Kd: 1.62 ± 0.17 µM

## AAA (ssRNA, cyclic tri-adenylate) [cA3]
[8]
  binding result: no binding
